In patent publication US6034062 one finds Kd, 3H-thymidine incorporation in HepG2 cells and ED50 of 3H-thymidine incorporation in HepG2 cells data, which are given here for 1 molecule.

Assay [1] concerns the target plasma membrane preparation from adult rat lung. The experiment in a line: [125I]rhBMP-9 displacement profile on rat lung plasma membranes.
Assay [2] addresses BMP-9 receptors expressed on HepG2 cells (ATCC HB8065).
For assay [3] the target is unchanged. In words: 125I-BMP-9 binding to confluent HepG2 cells, displacement by unlabelled BMP-9, Scatchard analysis.
In assay [4] the target is plasma membrane preparation from adult rat kidney. The experiment in a line: [125I]rhBMP-9 displacement profile on rat kidney plasma membranes.
Assay [5] concerns the target BMP-9 receptors expressed on HepG2 cells (ATCC HB8065). In words: 125I-BMP-9 binding to HepG2 cells, high affinity sites.

B1: recombinant human BMP-9 (CHO-derived, mature) (ligand)
chain: TRECSRSCPRTAPQRQVRAVTRRTRMAHVAAGSTLARRKRSAGAGSHCQKTSLRVNFEDIGWDSWIIAPKEYEAYECKGGCFFPLADDVTPTKHAIVQTLVHLKFPTKVG
modifications: 125I-iodinated as tracer; unlabelled BMP-9 used as the displacing ligand
One may read the Kd as the concentration at which binding is half-saturated. B1: the Kd was 600 pM in assay [1], 300 pM in assay [3], 300 pM in assay [4] and 270 pM in assay [5]. This molecule yielded a 3H-thymidine incorporation in HepG2 cells in assay [2] of 5 fold. The ED50 of 3H-thymidine incorporation in HepG2 cells in assay [2] was determined as 10 ng/mL.
